Experimental findings from patent US20170362286A1 are described below.

The target in the assay is mKv1.3 (murine voltage-gated potassium channel Kv1.3) (mouse) (UniProt P16390). Briefly: cell-based or functional assay.

No end group written: not given here.

Sequence of mKv1.3 (murine voltage-gated potassium channel Kv1.3) (mouse) (P16390 whole entry): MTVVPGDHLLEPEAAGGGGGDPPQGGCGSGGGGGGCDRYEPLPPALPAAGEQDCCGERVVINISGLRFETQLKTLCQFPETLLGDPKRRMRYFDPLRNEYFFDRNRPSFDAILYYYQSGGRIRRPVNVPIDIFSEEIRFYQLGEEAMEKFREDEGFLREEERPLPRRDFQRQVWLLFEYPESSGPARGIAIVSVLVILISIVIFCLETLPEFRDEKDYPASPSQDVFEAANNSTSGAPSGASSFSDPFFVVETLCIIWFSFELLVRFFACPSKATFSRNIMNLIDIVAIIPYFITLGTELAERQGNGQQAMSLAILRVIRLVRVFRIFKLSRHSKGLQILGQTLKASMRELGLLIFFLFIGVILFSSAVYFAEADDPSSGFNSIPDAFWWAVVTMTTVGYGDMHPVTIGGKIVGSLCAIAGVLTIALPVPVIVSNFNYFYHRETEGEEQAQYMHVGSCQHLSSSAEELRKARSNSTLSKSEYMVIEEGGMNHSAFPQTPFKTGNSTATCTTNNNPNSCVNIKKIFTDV

On to EWSSRSCIDTIPKSRCTAFQCKHSMKYRLSFCRKTCGTC (not fully specified; ends and bridges not checked) [[EWSS]ShK], for which the IC50, potency against Kv1.3 channels (patch clamp) is 0.033 nM and the Selectivity (for Kv1.3 over Kv1.1, ratio of IC50s) is 158 fold.
